What all share (format): cell-based
Assay [1] deals with HCT116 colon cancer cell line. As to the kind of experiment: Maestro Z impedance-based assay on HCT116 cells stably over-expressing target protein. Particulars: 2 days. As to the method: Over-expression: Stable over-expression tumor cell lines were made by transduction using lentivirus. For virus production, HEK-293T cells were cultured in DMEM with high glucose and GlutaMAX™ medium (ThermoFisher) supplemented with 10% FBS. After 24 h, cells were transfected using lipofectamine 3000 (ThermoFisher) of Lentiviral packaging plasmid mix (CELLECTA) and pGenLenti plasmids (GenScript Inc) containing: 1) no insert, 2) Target Protein encoding sequence, and 3) the AP2A1 protein (positive control for cell proliferation; https://doi.org/10.1038/sj.one.1205216), into HCT116 (Colon cancer cell line; ATCC). A Myc-tag (EQKLISEEDL) was added to the c-terminus of the expressed protein. After 48 hr post-transfection, culture media containing viruses was collected, loaded onto a 10 ml syringe and filtered through a 0.45 μm filter. […]
Maestro Z Impedance-based assay: The Maestro Z platform (Axion Biosystems) uses impedance measurements (ohms, (2) to quantify the presence of cells on the electrode. Since impedance is noninvasive and label-free, impedance assay is used to quantify dynamic cellular growth over time. For impedance recording, cells were seeded in 96 well assay plate, and the plate was docked in the Maestro Z and the automatic environment controls set the chamber to 37° C. and 5% CO2. Impedance measurements were recorded every minute for the 2 days.

A further assay has as its system HepG2 cells. As to the kind of experiment: Caspase-Glo 3/7 apoptosis assay, peptide-treated HepG2 cells. As to conditions: listed = significant. As to the method: Cell Culture: Tumor cell lines HCT-116 (Colon Cancer Cell line, ATCC) and U2OS (Osteoscarcoma Cell line, ATCC) cells were grown adherently in ATCC-formulated McCoy's 5a medium supplemented with 10% FBS and 1× penicillin-streptomycin at 37° C. (5% CO2). Jurkat cells (acute T-cell leukemia cell line, ATCC) were grown as suspension cultures in ATCC-formulated RPMI-1640 supplemented with 10% FBS and 1× penicillin-streptomycin at 37° C. (5% CO2). HEP-G2 cells (Liver Cancer Cell line, ATCC) cells were grown adherently in ATCC-formulated Eagle's Minimum Essential Medium (EMEM) supplemented with 10% FBS and 1× penicillin-streptomycin at 37° C. (5% CO2). […]
Apoptosis Assay: Following 24 hrs of peptide treatment, an equal volume reconstituted Caspase-Glo® 3/7 assay reagent mixture (Promega) was added to the cells. […] The treated plates were then read for luminescence on Promega™ GloMax® Plate Reader. A blank reaction that contained caspase-Glo® 3/7 reagent, vehicle and cell culture medium without cells was used to measure background luminescence. […] Significant difference in apoptosis was determined using ANOVA analysis by comparing cells treated with SEQ ID NO: 37997 peptide to cells treated with an irrelevant control peptide, or vehicle control treated cells.

The next assay relates to Jurkat cells. As to the kind of experiment: Caspase-Glo 3/7 apoptosis assay, peptide-treated Jurkat cells. Particulars: listed = significant. As for the experimental part:
(§1) Cell Culture: Tumor cell lines HCT-116 (Colon Cancer Cell line, ATCC) and U2OS (Osteoscarcoma Cell line, ATCC) cells were grown adherently in ATCC-formulated McCoy's 5a medium supplemented with 10% FBS and 1× penicillin-streptomycin at 37° C. (5% CO2). Jurkat cells (acute T-cell leukemia cell line, ATCC) were grown as suspension cultures in ATCC-formulated RPMI-1640 supplemented with 10% FBS and 1× penicillin-streptomycin at 37° C. (5% CO2). HEP-G2 cells (Liver Cancer Cell line, ATCC) cells were grown adherently in ATCC-formulated Eagle's Minimum Essential Medium (EMEM) supplemented with 10% FBS and 1× penicillin-streptomycin at 37° C. (5% CO2).
(§2) Peptide Treatment: Target protein SEQ ID NO: 37997 was synthesized through Fluorenylmethyloxycarbonyl (Fmoc) protection group chemistry using Solid Phase Peptide Synthesis (SPPS). 5 μM of target peptide and control peptides were added to a 96 well plate containing 10,000 cells (100 μL/well). A white-walled 96-well plate adequate for cell culture and compatible with the luminometer was used. (Corning)
(§3) Apoptosis Assay: Following 24 hrs of peptide treatment, an equal volume reconstituted Caspase-Glo® 3/7 assay reagent mixture (Promega) was added to the cells. The contents of wells were gently mixed using a plate shaker at 300-500 rpm for 30 seconds. The plate was then Incubate at room temperature for 3 hours. The treated plates were then read for luminescence on Promega™ GloMax® Plate Reader. A blank reaction that contained caspase-Glo® 3/7 reagent, vehicle and cell culture medium without cells was used to measure background luminescence. The blank reaction values were subtracted from experimental values. A negative control that contained caspase-Glo® 3/7 reagent and vehicle-treated cells in medium was included to determine the basal caspase activity of the cell culture system. Significant difference in apoptosis was determined using ANOVA analysis by comparing cells treated with SEQ ID NO: 37997 peptide to cells treated with an irrelevant control peptide, or vehicle control treated cells.

Another assay concerns U2OS cells. As to the kind of experiment: Caspase-Glo 3/7 apoptosis assay, peptide-treated U2OS cells. As to conditions: listed = significant. As to the method:
as §1, §2, §3

The next assay deals with T1, C3AR1 (Homo sapiens, UniProt Q16581).
T1 sequence (Q16581 1-482): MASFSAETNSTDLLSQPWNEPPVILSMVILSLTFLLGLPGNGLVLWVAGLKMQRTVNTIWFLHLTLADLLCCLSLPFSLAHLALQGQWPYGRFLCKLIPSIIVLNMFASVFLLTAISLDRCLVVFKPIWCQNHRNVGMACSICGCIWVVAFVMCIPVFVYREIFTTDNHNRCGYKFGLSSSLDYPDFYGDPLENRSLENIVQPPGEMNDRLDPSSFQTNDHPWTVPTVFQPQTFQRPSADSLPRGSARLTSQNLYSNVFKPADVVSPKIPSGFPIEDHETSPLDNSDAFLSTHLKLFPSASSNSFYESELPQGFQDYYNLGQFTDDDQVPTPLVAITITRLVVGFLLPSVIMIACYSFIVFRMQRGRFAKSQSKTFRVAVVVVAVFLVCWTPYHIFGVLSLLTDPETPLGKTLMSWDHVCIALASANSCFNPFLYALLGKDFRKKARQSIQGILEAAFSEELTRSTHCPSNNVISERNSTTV
The experiment in a line: PathHunter β-Arrestin C3AR1 human complement peptide GPCR agonist assay (gpcrMAX screening and hit-confirmation). As to conditions: for % activity with respect to known agonist, C3A Receptor Agonist: hit-confirmation. As to the method:
SEQ ID NO: 30949 blocks CXCR4 and cancer cell migration, making it suitable in the treatment of multiple cancers. Whereas SEQ ID NO: 34229 agonizes C3AR1, a key regulator of immune response and inflammation. The target proteins SEQ ID NO: 30949 and SEQ ID NO: 34229 were treated with gpcrMAX, which is a comprehensive panel covering 168 G protein-coupled receptors (GPCRs) from over 60 distinct receptor families. This panel utilizes PathHunter® β-Arrestin technology (Eurofins DiscoverX). PathHunter β-Arrestin GPCR cell lines are engineered to co-express the ProLink™ (PK) tagged GPCR and the Enzyme Acceptor (EA) tagged β-Arrestin. Activation of the GPCR-PK induces β-Arrestin-EA recruitment, forcing complementation of the two β-galactosidase enzyme fragments (EA and PK). The resulting functional enzyme hydrolyzes substrate to generate a chemiluminescent signal.
Cell Handling: PathHunter® cell lines were expanded from freezer stocks according to standard procedures. Cells were seeded in a total volume of 20 μL into white walled, 384-well microplates and incubated at 37° C. for the appropriate time prior to testing. […]
Signal Detection: Assay signal was generated through a single addition of 12.5 or 15 μL (50% v/v) of PathHunter® Detection reagent cocktail, followed by a one-hour incubation at room temperature. Microplates were read following signal generation with a PerkinElmer Envision™ instrument for chemiluminescent signal detection.
Data Analysis: Compound activity was analyzed using CBIS data analysis suite (ChemInnovation, CA). For agonist mode assays, percentage activity was calculated using the following formula: % Activity=100%×(mean RLU of test sample−mean RLU of vehicle control)/(mean MAX control ligand−mean RLU of vehicle control). For antagonist mode assays, percentage inhibition was calculated using the following formula: % Inhibition=100%×(1−(mean RLU of test sample−mean RLU of vehicle control)/(mean RLU of EC80 control−mean RLU of vehicle control)).

Assay [2] has as its system HCT116 colon cancer cell line. As to the kind of experiment: WST-1 proliferation assay on HCT116 cells stably over-expressing target protein. Particulars: low serum (0.1% FBS); 48 hours. As to the method: Over-expression: Stable over-expression tumor cell lines were made by transduction using lentivirus. For virus production, HEK-293T cells were cultured in DMEM with high glucose and GlutaMAX™ medium (ThermoFisher) supplemented with 10% FBS. After 24 h, cells were transfected using lipofectamine 3000 (ThermoFisher) of Lentiviral packaging plasmid mix (CELLECTA) and pGenLenti plasmids (GenScript Inc) containing: 1) no insert, 2) Target Protein encoding sequence, and 3) the AP2A1 protein (positive control for cell proliferation; https://doi.org/10.1038/sj.one.1205216), into HCT116 (Colon cancer cell line; ATCC). A Myc-tag (EQKLISEEDL) was added to the c-terminus of the expressed protein. After 48 hr post-transfection, culture media containing viruses was collected, loaded onto a 10 ml syringe and filtered through a 0.45 μm filter. For cell transduction, HCT116 colorectal cancer cells were seeded in 6-well plates, the virus was added to the cells. After post-transduction, stable cell mixed populations are selected for with puromycin for 14 days. Expression of the Target Protein and controls are confirmed by immunoblot of 50 μg of cell lysate using anti-myc-tag polyclonal antibody (CST).
Proliferation: Polyclonal cell lines that over-express the Target Protein or control, wild-type HCT-116 cells, were plated in 96 well plate (10,000 or 5,000 cells per well) grown in standard media in both low serum (0.1% FBS) and high serum (10% FBS) conditions, respectively. After 48 hours, the cells are subjected to the WST-1 ([…]) assay. The WST-1 assay (Sigma) is a measure of the metabolic activity of group of cells. The higher the metabolic activity the higher the proliferation rate. Significant differences in proliferation are determined by comparing protein-expressing cell lines with a stable cell line of the empty expression vector (control) using ANOVA analysis.

No end group written: not given here.

As to “SEQ ID NO: 30462: target protein over-expressed (Myc-tagged) in stable HCT116 cell line; oncogene (METFEIFYLKCIRVNLISRQLNTFFLAVLLVVCMPCFHSVCTGKRT; cysteine pairing not given here; also: Myc tag; listed as Homo sapiens)”, the “proliferation over time (impedance) on over-expression vs Empty Vector” value in assay [1] is reported as “significantly increases proliferation”.
As for “SEQ ID NO: 34224: ORF peptide; sequence only in Sequence Listing (MSFDHPEKNGPWPADPINLPSHG; listed as Homo sapiens)”, in the assay with HepG2 cells, the “z-score compared to vehicle control (peptides inducing significant apoptosis)” value is “SEQ ID NO: 34224”. In addition, the “peptides inducing significant apoptosis vs vehicle control” value in the assay with Jurkat cells is given as “SEQ ID NO: 34224”.
“SEQ ID NO: 34229: novel peptide GPCR ligand that agonizes C3AR1; sequence only in Sequence Listing (MWILRDRAVHELQAVLLALVLGR; listed as Homo sapiens)”: in the assay on U2OS cells, the “z-score compared to vehicle control (peptides inducing significant apoptosis)” value is “SEQ ID NO: 34229”. Also, the “GPCR ligand mode at C3AR1” value with C3AR1 (gpcrMAX panel) is “agonist of C3AR1”. The “% activity with respect to known agonist, C3A Receptor Agonist” value in the assay with C3AR1 (0.3 μM) and with C3AR1 (1 μM) was “significant activity” each time. Besides, the “peptides inducing significant apoptosis vs vehicle control” value in the assay with Jurkat cells is “SEQ ID NO: 34229”.

B1: SEQ ID NO: 26966: ORF peptide; sequence only in Sequence Listing (peptide, listed as Homo sapiens)
chain: VSPRFLVLKSSPAHRDSDSPQTPRLRVMESRTLLLLFSGAVALIQTWADYNYNQGRNDLIFTLQLWKRQ
With B1, the “z-score compared to vehicle control (peptides inducing significant apoptosis)” value in the assay with HepG2 cells was “SEQ ID NO: 26966”.

B2: AP2A: published oncoprotein, over-expressed positive control for cell proliferation (protein, UniProt O95782 1-977, looked up)
AP-2 complex subunit alpha-1: MPAVSKGDGMRGLAVFISDIRNCKSKEAEIKRINKELANIRSKFKGDKALDGYSKKKYVCKLLFIFLLGHDIDFGHMEAVNLLSSNKYTEKQIGYLFISVLVNSNSELIRLINNAIKNDLASRNPTFMCLALHCIANVGSREMGEAFAADIPRILVAGDSMDSVKQSAALCLLRLYKASPDLVPMGEWTARVVHLLNDQHMGVVTAAVSLITCLCKKNPDDFKTCVSLAVSRLSRIVSSASTDLQDYTYYFVPAPWLSVKLLRLLQCYPPPEDAAVKGRLVECLETVLNKAQEPPKSKKVQHSNAKNAILFETISLIIHYDSEPNLLVRACNQLGQFLQHRETNLRYLALESMCTLASSEFSHEAVKTHIDTVINALKTERDVSVRQRAADLLYAMCDRSNAKQIVSEMLRYLETADYAIREEIVLKVAILAEKYAVDYSWYVDTILNLIRIAGDYVSEEVWYRVLQIVTNRDDVQGYAAKTVFEALQAPACHENMVKVGGYILGEFGNLIAGDPRSSPPVQFSLLHSKFHLCSVATRALLLSTYIKFINLFPETKATIQGVLRAGSQLRNADVELQQRAVEYLTLSSVASTDVLATVLEEMPPFPERESSILAKLKRKKGPGAGSALDDGRRDPSSNDINGGMEPTPSTVSTPSPSADLLGLRAAPPPAAPPASAGAGNLLVDVFDGPAAQPSLGPTPEEAFLSELEPPAPESPMALLADPAPAADPGPEDIGPPIPEADELLNKFVCKNNGVLFENQLLQIGVKSEFRQNLGRMYLFYGNKTSVQFQNFSPTVVHPGDLQTQLAVQTKRVAAQVDGGAQVQQVLNIECLRDFLTPPLLSVRFRYGGAPQALTLKLPVTINKFFQPTEMAAQDFFQRWKQLSLPQQEAQKIFKANHPMDAEVTKAKLLGFGSALLDNVDPNPENFVGAGIIQTKALQVGCLLRLEPNAQAQMYRLTLRTSKEPVSRHLCELLAQQF
B2: the “proliferation (WST-1) on over-expression vs Empty Vector” value in assay [2] is on record as “significantly increases proliferation”. The “proliferation over time (impedance) on over-expression vs Empty Vector” value in assay [1] is on record as “significantly increases proliferation”.

(Values after US20260193644A1, “Compositions and Methods For Modulation of Tumor Suppressors and Oncogenes” (FLAGSHIP PIONEERING INNOVATIONS VII, LLC, priority 2022, published 2026).)
